19 sequences from the DeepSol protein solubility set can be followed below.

This data set can be described thus: soluble on expression in E. coli; label from the status in PepcDB or PDB records.
Take “MSLSPALSAPKPLRFPANPAPTALKQFALTLQSESYRYRTPMKFGGRVVEEVTVLTAQCTATNQAGQVADGDQIGIGSMTMGVAWAWPDASVADGTKLEVVLELASRMAAQVNEASGTLTGHPMEICLQLASQREDLVAAVAAGHDLTAPIPELAILLAASPIEAALFDAHGKAAGQSSYSLLSAEHLPPDLGEMTGDDRYAGLRLDQFISSSPVATLPLYHLVGALDPLTQDDLAEPVGDGLPETLGEWITRNELTHLKIKLNGDDADWDFRRVRDINTVANETTDRGSSTGKPWWFSLDFNERCEDEAYVLGLLDRLESECPEAFERIQYIEQPTHRDLKRPGAVTMHQAAARIPVVIDESLTGLESLHLAVSQGYSGIALKACKGHAEALLLGAIAVHENLFLCVQDLTCVGASLLHSASLSAHIPGVAAVESNGRQYCPEGNAEWMACFGPMFEVRGGSVPTSCLDGPGLGYEGHHHHHH”: the “soluble on expression in E. coli” value is given as “soluble”.

Consider “MGSDKIHHHHHHMYLLVYGSLRYGFELNHLVAKSRFVGLGYIEGYEMYDLGNYPGVIKGDGIVWGEVYEIDENLIKLLDEVEDYKGSPDDLYVREKTRVYFDQKRKYYLDNVYFYRYNKEIVKNMEKIEDGDYSAWSGMPIIVNYFAYAENTNERILHQRGVDMILSETPAYTKGYRLIFNIPCKYGYCANLIEDESGIICGYLQKVFLHTLNSLDKAEQHLIKYIREVVKVYDRNGKEYFAYAYVSSYKENRKKPSEEYVKIIREGLMRGWGNECVSTGLYDEPGIS”, for which the “soluble on expression in E. coli” value is given as “not soluble”.

With “MGSDKIHHHHHHMVSIRKSLLQFVFAGSYMKRWNDKLRPVELLEVDKQAHKMIVAWLLYQQNSDDLDDTSRLRLGSDIIEGGIFDYFYRLVITDIKPPVFYRIKDNAQHYAQLSAWVLDELEPLVQPLGEDFWGRMRGWVQRPEKNSRADRILDAAHLFASNWEFRLIESLNRFDDEIEDIGASFDAKLAGFDDLKGMDSLRHATGAVGRFAALCGQLRFQKRWSQTPRIPETSVLGHMFLVACYSYFFSLAVNACGARRQNNFFIGLFHDLPELLTRDIISPVKKSVEELDAVIKEYEEAELRRKVLNPLEEEGFGGIAARLSYYLGLEVGSEFTEAVVDNGNVLAVDFELLQSRYNHDRFDPRDGRMLKTCDTLAAFIEAYTAVRNGISSDQLQAALWRLRDKNRRTVIGPVHVGALFADFD”, the “soluble on expression in E. coli” value is given as “not soluble”.

As for “MAAKKRGLGRGLDALLGGSSPAKLQEEAVQADRRELQQIPLDLMQRGKYQPRRDMDPQALEELAQSIKAQGVMQPIVVRPIANGRYEIIAGERRWRASQQAGLEKIPALVRDVPDEAAIAMALIENIQREDLNPIEEAAALQRLQQEFQLTQQQVAEAVGKSRATITNLLRLIGLPEEIKTLLSHGDLEMGHARALLGLPAERQVEGARHVVAHGLTVRQTEALVRQWTHAPGKPAGPVKSDPDIARLEQRLAERLGASVQIRHGQKGKGQLVIRYSSLDELQGVLAHIR”, the “soluble on expression in E. coli” value is “not soluble”.

Consider “GSFTEGWVRFSPGPNAAAYLTLENPGDLPLRLVGARTPVAERVELHETFMREVEGKKVMGMRPVPFLEVPPKGRVELKPGGYHFMLLGLKRPLKAGEEVELDLLFAGGKVLKVVLPVEAR”, for which the “soluble on expression in E. coli” value is given as “soluble”.

With “MGSDKIHHHHHHVSVSDAGNFDANDVAVTFGIDKVREAFEQRRSTLPPFAPYDEEPESERPKLKATPFSWRDPATIPPRKWLYGRHLIRKFLSLDIAPGGLGKSSVKIVEALAMTTGRNLLGKDCHEGPLNVWLYNLEDPAEETERRIHAAAQWFEIGPDDVGERLFVDSGREQPICIAEETDGGARIVRPVVEAVIEQLKDRRIDVLSIDPFVSSHAISENDNRAIDMVAKEWSRIADICDCAINLVHHVRKTNGAEVTAESSRGAVSLIGAARSVVVYNRMTKEEGERAGIEPRQLGFYFRTQNDKANLAPPEAADWFRMNNVDLPNGDSVGVACPWQWPDPFDGVSTWHLKEVQKRVSQGRYRADVRSAQWVGHVIANVLDIDLEKKAGRVKDILKQWLKNDMLREVEGTDEKRNVRKFVEVGTWHTD”, the “soluble on expression in E. coli” value was “not soluble”.

As for “MANRTEKAAKTVKGTNPQFLVEKIIRQRIYDSMYWKEHCFALTAELVVDKGMDLRYIGGIYAGNIKPTPFLCLALKMLQIQPDKDIVLEFIQQEEFKYIRALGAMYLRLTFDSTEIYKYLEPLYNDFRKLRYMNKMGRFEAIYMDDFIDNLLREDRYCDIQLPRLQKRWALEEVDMLPSYKSLLDGDLVAMSDSDSEEEEVTKKEKPRLTSRRRSRSRDRERDVGDRREVREREKLKERRERGDDEPGPSSSGSGRRDDRDDRRRDRDRSRDRDRRDRRDDDRRDKKKESRRGGADNDEEREIAEANALRAKLGLAPLER”, the “soluble on expression in E. coli” value is reported as “not soluble”.

On to “MGSDKIHHHHHHMTWHEVNDVIVITLPEIFDMNANLGYLTREKNECMYEIENNIITKVIAIGEIRSLVQVSVINNKQMIVQFLNDSRPVEQWKREEIVKYIHEWFDLDNDLTPFYEMAKADPLLKMPARKFYGLRVIGIPDLFEALCWGVLGQQINLAFAYSLKKQFVEAFGDSIEWNGKKYWVFPPYERIARLTPTDLADIKMTVKKSEYIIGIARLMASGELSREKLMKMNFKDAEKNLIKIRGIGPWTANYVLMRCLRFPTAFPIDDVGLIHSIKILRNMNRKPTKDEILEISVPWKEWQSYATFYLWRVLY”, for which the “soluble on expression in E. coli” value is given as “not soluble”.

Turning to “MAHHHHHHMSDLRRVESLNADTFRRLNATSVVKSFWHTQLRAATAASRGAKDDSLATANEETPVATRKLRSAASSAEKSAGGLTDSTVYSSSSSSSNSRLSVSATLPGFPSPTETRRRLRAAALSAERHRAEESDEEKPDPVARTLFQNFLLQEYDALDSRPVLTVVLDLDETLVSNRDSGATGAILRPYCLHMLNALRHMQGLEVVLWTASTKETAAPVIRQLSQSGPVFDDVICRNSSWFTEPLHTKDLRLLGRDMSRVIIFDNSTACCKLNPRNAVIVDDFRGVRNTSDAALVNVYYIIERSFNGCCAGVSVLETLVKLAVEKQLCMPEVLHLPESWRHIPLREIAPLKVPPHGIFFRAHSTPLNDSIMQHWTV”, the “soluble on expression in E. coli” value is reported as “soluble”.

For the sequence “MGSDKIHHHHHHMQHTIQHLYKTHGDDGLLYAWFLSMHTRVDIILCCQKSENELMLVVNSIYDTLRQLERIANYYDPSSELSQVNQRASTAPVMISQSLYRMISLCTEYHKKTLGCFDVTIHSDNYNQDTIHSIHLYPEAQSVFFQQAGTTINLSGFLKGYALDKIREILKVHIIANALINMGNSSVLALGNHPVGTGWKVSFDDQASTTKNHKTQSILLNNECLTTSGNNSDDRKHIISPSSGKPLEGVRQVTVVTDDGTTGEILSTSLFVANQKQRELIMSEFLPKRVIDLELCQMV”, the “soluble on expression in E. coli” value is on record as “not soluble”.

As to “MKFLPLLALLISPFVSALTLDDLQQRFTEQPVIRAHFDQTRTIKDLPQPLRSQGQMLIARDQGLLWDQTSPFPMQLLLDDKRMVQVINGQPPQIITAENNPQMFQFNHLLRALFQADRKVLEQNFRVEFADKGEGRWTLRLTPTTTPLDKIFNTIDLAGKTYLESIQLNDKQGDRTDIALTQHQLTPAQLTDDERQRFAAQ”, the “soluble on expression in E. coli” value is recorded as “not soluble”.

As to “GEEKKDSKAFIDVSAATLWTAPDSLRPIDVPSATNPVDLWKWTKSMTLDEKLWLTNANKLETQALLGQEVTVVDKKGDWVKVLVHGQPTPRNEEGYPGWMPEKQLTYNQEFADKTNEPFVLVTKPTAILYINPSEKHKSLEVSYNTRLPLLSEDTISYRVLLPNGQKAWLRKNDGTFYRSQNDIPTPAADDLINTGKMFLGLPYIWAGTSGFGFDCSGFTHTIYKSHGITIPRDSGPQSRNGVAVDKEHLQKGDLIFFAHDQGKGSVHHVAMYIGDGNMIHSPRAERSVEIIPLNTPGYIEEYAGARRYLP”, the “soluble on expression in E. coli” value is on record as “soluble”.

Turning to “MSLKGKIIEKVISKVKCKSDENYKIGLWVRDSTAGIGTLTFYSDKTKVFGALGHPITDVDTGDIINISRGSLIDSSIVSVNKGIRGNPGELRGIFINENKPIGIVKNNTICGLFGKGYEKFEGLQYNKPMEVAMRNEVKLGPAKILTTIDGSQPKMYAINIEKLFDQSSPNPKSMMIKVTDAELLDKTGGIVQGMSGSPIIQNNKVVGAVTHVLINKPDTGYGVYIEWMLKSAGILEGHHHHHH”, the “soluble on expression in E. coli” value was “soluble”.

As for “MFQLSTQDIHLAAQADNKNAAITQVAAALTQAGCVTAAYVDGMLAREQQTSTYLGNGIAIPHGTTDTRDQVLNTGVQVFQFPQGIEWGADQTAYIVIGIAARSDEHLALLRQLTHVLSDDAVAARLAKTTSAEELRSLLMGEQKTAEFHFDTSLIALDVAADNLITLQALNAGRLQQIGAVDARFVSDVITREPLNLGQGIWLSDSTEGNLVSAVTISRPATAFEHKGEKVALLLTLSVADDQPLTVLNYLSELLLAQKADALLNADAAALLALLTSEYVEQSKVLSAEFVIRNEHGLHARPGTILVNTIKQFTSEITVTNLDGTGKPANGRSLMKVVALGVKKGNRLRFTASGEDAQTALDTIGEVIAAGLGEGAA”, the “soluble on expression in E. coli” value was “not soluble”.

On to “MGSDKIHHHHHHMPFDQGGIKMKPLLQTVDLKKYFPQGKRILKAVDGISIEIKEGETLGLVGESGCGKSTLGRTILKLLRPDGGKIFFEGKDITNLNDKEMKPYRKKMQIIFQDPLGSLNPQMTVGRIIEDPLIIHKIGTKKERRKRVEELLDMVGIGREFINSFPHEFSGGQQQRIGIARALALNPKFIVCDEPVSALDVSIQAQIIDLLEEIQQKMGISYLFIAHNLAVVEHISHKVAVMYLGKIVEYGDVDKIFLNPIHPYTRALLKSVPKIPWDGQKQRFYSLKGELPSPIDLPKGCRFQTRCTEKKAICFEKEPELTEVEKNHFVSCHLVRSYRG”, for which the “soluble on expression in E. coli” value is reported as “not soluble”.

Regarding “MSDRYRFTILGCGSSPGVPRPNGDWGACNPNNPKNKRYRSSLLVERIHKSGKKTTIVIDTGPDFRSQMIDACVNHLDAALYTHSHADHIHGIDDLRSYALAQKSLIDIYADSFTLRHLKNAFGYCFQTPKGSSYLPILKAHLINEDSQFIIQGQGGAIHVNTHLQLHGSIHSLGFRIGNVAYCTDVSQFPKKTLPKLMNLNVLIIEALQFKSHPSHLSVDQALQWIKYLQPKQAILTHMDRSLDYNEVINYLPPHVKPAYQGLIFEADA”, the “soluble on expression in E. coli” value is reported as “not soluble”.

Take “HGPASRLLHRHIREQLKDLKEVSHESLVVGAVENAFQLMDEQMARERRGHQVEGGCCALVVIYLLGKVYVANAGDSRAIIVRNGEIIPMSREFTPETERQRLQLLGFLKPELLGSEFTHLEFPRRVLPKELGQRMLYRDQNMTGWAYKKIELEDLRFPLVCGEGKKARVMATIGVTRGLGDHSLKVCSSTLPIKPFLSCFPEVRVYDLTQYEHCPDDVLVLGTDGLWDVTTDCEVAATVDRVLSAYEPNDHSRYTALAQALVLGARGTPRDRGWRLPNNKLGSGDDISVFVIPLGGPGSYSVRASSPSPL”: the “soluble on expression in E. coli” value was “not soluble”.

“MLVDHLLARGATDVRALTNHPDKAQLPDSVTVVEGYLRRLGSLPAAFEGVDSLYLAPTPDTAPDALALAKQAGVRHVVDLSGPHDGHWGDVARAVEASGIEWTHLWPGEFMENAGILAPQITAGDTVREPYPTAANAPIAMDDIAEVAAVALLESGHVGASYELTGPETITRAELVRELGAALGRNIEYRQVSLDEAVDVLTPAMGEYARWY”: the “soluble on expression in E. coli” value is “not soluble”.

For “MTVTDHILPTATNGRPPGLIIAAPSTNSGKTTVTLALHAALRRRSLTVQPYKCGPDYIDPAFHEIAAGRPCYNLDSWAFGQDRITYLLDAAAGADLCLAEGVMGLFDGGSARGAWGNGATADIAAFTGWPVVLVIDVAGQAQSAAALALGFARYRSDVRIAGVILNNVASARHEALVRDGFAAQDIPVLGGFERQRDLTLKNRHLGLVQARETARLDIRLQQLADSAVRGIDLDALIRAAQPARPIASTIRPLTPPGQRIALAHDDAFSFIYPHLTAGWRAAGAEIVPFSPLNDEGPDPSCDAAWLPGGYPELHAGRLAAATRFKAALGAFAETRAVHGECGGYMTLGAGLIDADGTRHAMAGLLGLETDFASRKLHLGYRLATLHADAAGKAAGSVLRGHEYHYARVVTVADEPLAEIRDPAGQLTDETGSRRGHVTGTFFHLIDVAEEAIALEHHHHHH”, the “soluble on expression in E. coli” value is listed as “not soluble”.
